Data taken from the DeepSol protein solubility set.

Assay: soluble on expression in E. coli; label from the status in PepcDB or PDB records

Soluble on expression in E. coli, not soluble:
MARNSTLTNLFLSTKRNMGRLISHIVKADDIDDIVQETFIKTYEADLKQEIKYVRSYMLKTAKNLALNHVARWDNKYNDSLEDFSQPPVQLTSGKVEDDYESKEQFLFFCRATDQLSGSVRKCFILKKVYGLSQKEIASYLNLSESTVEKHIAQGLLKSTKYIKRMNHGHSVKGAKQNHQVHSLQVKKTVLK
DPFSNLTELANALKEKYQLKNVTVAFSQTNDYSEISKQISQSAAEYLEEIIHDDDILGVSWGTTMYKIAQKLSPQKAEIKVVQLKGGVSHSDVNTYAAETLALFGAAYDTAPVSLPLPVVLDNPLAKQMVEADRHIKNIIELGKKANIAIFTVGTVREEALLFRLGYFSDEEKIRLKEKAVGDICSRFFTINGEIADEKMNERTIGIDLQDLKQKETAILVAGGERKIKAIHGALRGGYANHFITDQYTAKQLLEQNFS
MGSDKIHHHHHHMSTAKTLTLEMHLGDLMIGELSFDATADTFAVHYTKDWQQSGFPLSPTIPLDGTGTSNQISMFLVNLLPENKGLDYLIESLGVSKGNTFALIRAIGLDTAGAIAFVPKGALLPETQLRPIKAEEVIQRIEDPTMWPMEIWDGKPRLSVAGVQPKLNLFYNGKEFAFAEGTLSSTHIVKFEKYHHLVINEFITMRLAKVLGMNVANVDIVHFGRYKALCVERFDRRNIPGEQRVLRRHIVDSCQALGFSVSKKYERNFGTGRDVKDIREGVSFNRLFSLAAKCRNPVAAKQDMLQWALFNLLTGNADAHGKNYSFFMTPSGMEPTPWYDLVSVDMYEDFEQQLAMAIDDEFDPNSIYAYQLAAFMDGLGLPRNLLISNLTRIARRIPQAIAEVILMLPPLDEDEASFVAHYKTQLLARCERYLGFVDEVRDVEV
RAKLMEERETSLKDSVEVAFDAVRLIANNPNLSEAEAKQQVKAVLTNIRYGSDGYFFAYDAQGTNLVHPIQPELVGQNLWQLQDERGDFLIQ
MGSDKIHHHHHHMTKILIVLSEWGYWGEELVGPLETFDAAGYQVDFATPNGKRPVALGVSMDPTFVDPPLGRPVTTQDMADKVRQLDDTNNPRLNNPKNLREWLPERPYWSSPKFLREMEEYYRLLDEVRQRDLQTYDAILIVGGSGPMVDLADNQRVHDLILSFYQMGKPVAAECYGVACLAFARDIGDRKSIIWGKHVTGHCLEYDYKDGTGFNGTNIDPCLNNINFGTPFYPLEYILRDATGPDGQYHGNVGRPTSVIVDYPFITGRSTPDSYLTGQKLVEVLEKGLKRYGW
MGSDKIHHHHHHMQELLCDRGKGRHADPMQNKPDTPPLSRFHQFRTADLDEARALVARNFCGHRLERQAREDAFDACQNRAGGNGLFYNYIRYGADVEIEPGELGSFYLIQVPIRGQALIRNGRTEVETGSAIASVLNPDRHTRMRWLAGCEQVLLQIDRNRLTAVAETLTGTALQSPVRFDPQIDRARPEMQRWLALFRRAVSAVDHGALLDPDQALSRALVEDELIAGFLRAQPSSIAPLLERPETGPLSPHVRRARDFMQAHLADPLTLSQIAAAAGTSPRNLQLGFSQLLEMTPLAYLRVLRLNYARYLLRESPPQVTIASIAGAAGFSHLGRFSAQYAARFGEGPSQTRKQHYLI
MGSDKIHHHHHHMEQDTSMITWHHSPAHLFVPNAFYIVTASTLCHQPLFNSPQKLHILQSTLFEIMQAYNWRLQAWAVFSNHYHFIAQSPEDSSSLKPLIQRFHSQTARAINVLDGSKGRKVWFQYWDTCLTYEQSYLARLNYVHNNPVKHGASRECRAVSLLFSYMV
MGSDKIHHHHHHMSEEQKTISISELESMNIKQLYEIAKSLGIPRYTSMRKRDLIFAILKAQTESTGYFFGEGVLEIHPEGFGFLRRIEDNLLPSNDDIYISPSQIRKFNLNTGDIISGVIRKPKEGEKYFAMIKIEAINYRPVEAVNDRVNFDNLTPDYPRERFILETDPKIYSTRLIDLFAPIGKGQRGMIVAPPKAGKTTILKEIANGIAENHPDTIRIILLIDERPEEVTDIRESTNAIVIAAPFDMPPDKQVKVAELTLEMAKRLVEFNYDVVILLDSLTRLARVYNIVVPPSGKLLTGGVDPAALYKPKRFFGAARNTREGGSLTIIATALVETGSKMDEVIFEEFKGTGNMELVLSRQLANKRIFPAINLLLSGTRREELLLDEETLKKVWLLRRMLSAMTEEEGLTLILNKLSETSSNEEFLKLIDKEKARY
GPGSMHGIRRWRVRLVNRACQSLSGSLVFSACRHCATVPTEDDVRKAYKILGVHTSATLTDVKKRYGDLAKEHHPDVSNSSAVSSTNRMTDINNAYNTVKQFHQAGRRLFEATRAPNASGASDSSSSSYYSKQDSAYQPWYEDMDPLMYELMWEEMRRQNEEDSFARNMHAEAFYRPNDRWRPPRGNASARPRQSSGSSDGRQSHAGKKSPSSTTWPEEQVKAMVNMYQDGKSFEFIANALGKESAAAVLEEFNRWSSDNQPQRRKGAKPHHARRHRYHGGHGPFYHTESPDEVPFELYEMMEEEPYYDGSSEESGDPFGYYSGDGEAYDVPYTHATPFYGVHQMNGGPAPYGHFEGGVGREYNSSRKMSHRPMRNHRGGPPNKNRRYGGTSSNHKGSGGGFQSGNGKSHGSGGGKT
MGSDKIHHHHHHMTSFVLSSKNAFDYLILQGLCTQNEKSLSKIELVPAKNFNLLISLPDNRKLLIKQEPHKREGKTSGEFLKEWRVHNFLQTFPELSDIRSYFSEAVHFDPENSIFVFNYLTNYRDLMDFYVERNLKLFPIKIAMLVGTTLASIHRLSIDRQEYQEFFLNKNIFGQGIPNLNLGMDRVSPAVFGKLPTDGLKFLSLYQRYDSLGQAIAELNNALIPCCLTHNDLKLNNILLSLNWEEAAFNESSSDESIIRLIDWERGAWGDPASDLGTLIASYLQLWLHSMITSKTMAIQESLRLATTPLHLLQPSIRELVIAYLSAFPEIIELHPDFLQRVMQFCGFALIKSIQAKLQHEKTFGNKGICILQVAKSLLCRPEASIPTIFGVDASDLSPINLSPASK
MGSDKIHHHHHHMNEVIENVKEYYGKILHSTADLQSKACCCSPDSMPKEVKKALIFIADEVINRYYGCGSPLPPLLEGMTVLDLGCGSGRDVYVAAQLVGEHGRVIGVDMTQEQLDVAKKYEDEQRQRFGYAKSNVKFLSGYIEDLRAAGISDSSVDIVISNCVVNLSPDKEKVFAEIWRVLKPGGELYFSDVFADRRIPEYLAADPVLRGECIGGALYYEDFRRIMQRVGFTDFRYKSIRNIDLDNEAIIEKVGFANFTERTVRAFKLDDLEDICEDYGQIAVYNGSIASSPHFFDLDDHHRFFTGKPLLVCGNTAAMLAKTRFASAFRVIGNRSTHYGVFGVCGGKSETNCFDTGSSCGC
DTTYGCPGEWRCLKAAALGEGKFDEPVRVIGFVRCECPGNTLVPNIGMTMKLSEVKPDAIYFSSCMLRDPGCPYRSAEEWAKIVENAFQIPVKLGTH
MSLSHNSSLPPFTASGFAEDQGAVRIWRKDSGDNVHFLAVFSPWRSGDTTTREYRWQGDNLTLININVYSKPPVNIRARFDDRGDLSFMQRESDGEKQQLSNDQIDLYRYRADQIRQISDALRQGRVVLRQGRWHAMEQTVTTCEGQTIKPDLDSQAIAHIERRQSRSSVDVSVAWLEAPEGSQLLLVANSDFCRWQPNEKTFEGHHHHHH
NVKHAFVDVQLAALPKMAYAAVDFVDYRFDNKHWKSLNEICPEVGLKPYADFAVLEVPLYLNNKLDYQVWENFIKPAIATYKALGDSTNLFASTSSSDLQNDTYFALGYPLLESNIDAIHFNQTGATLTSVPVKDRIKVKNQSFWTLN
DSLGNLVDGDQIIYIIAKDRHQRGVLHGGVVGTLMSNYGLELAITSLGVPFQRSKVGDRYVLETLREKDWKIGGETSGHIVCLDKTTTGDGIVAALQVLSIMVKQNKALHELTAGIQLL
MGSDKIHHHHHHMHAVSHLASKDAQSNASPQVALIAEGGGQRGIFTAGVLDAWLDGGFDPFDLFIGTSAGSQNLSSFLARQKGYAKRLIRGLSRHKRFYRLGRGLVGGNVVDLDWYFEQTRQGMFKLDLNAATASLGHRQLLITTTNASDRKGYFLSPSSKSQWRELLKASSALPFLYKQGVKLTPWLNDNACNSDKACNNGAANHGGSHHSAALSEAIDSDFYLDGGLAAPLPVREAYRRGARKIVVIRTVSEDFQAQSAWVHKLKSWICVSGFCPKTIDYLVQHEQAYQDELDFIANPPEDVEIVQIFAAENLQSKLLGSTDADLRHDYHAGMNAGKQFLTQDPMALTQMNVHFQTQVQTNAHTQTHIQALSQIKPFSALSA
MSLVPARVFSCTILVDFQTEDQDTMCNLLRVQWTITPRTAPQPWLACNGCGDLRAFQASDKIRLNANGRKLDAWLIYRCLICDKSWNRPIFERQNVCDISPPVLEALQCNDPQWIRAETFNLEALRRKSQRIDEFPDFDIEKRIRDEPTDWAAAEIDLTVPFPASIRLDRLLASELGLSRSMLQKLHDGGQIRAQSDLLRRRLRNGTRIVIECGDGLDRERFWKPAVRGLEGHHHHHH
MFNVDGECVVFTSGGTESNNWVIEGTIRNAKKVSKLPHIITTNIEHPSILEPLKRREEDGEISVTYVSINPLTGFVTSQSILDALTSDTCLVTIMLANNDTGVLQPVSEIFQAIREKLKTNVPFLHSDVAQAAGKIPVNVRSLSADAVTVVGHKFYGPRSGALIFNPKSKRIPPMLLGGNQESGWRSGTENTPMIVGLGEAAKVYNEGFLNIESILRQNRDYFEELLLKRLRNSHIIHFIGSQRLPNTSSVAFLDYPSHGCDLLEKCQTFNASTGAACHKNECSPILKACGIPFAVASKTVRISFGRSTKIAEIETVVDELVQLCSPS

Soluble on expression in E. coli, soluble:
MGSSHHHHHHSSGLVPRGSHMHSVVQSVTDRIIARSKASREAYLAALNDARNHGVHRSSLSCGNLAHGFAACNPDDKNALRQLTKANIGIITAFNDMLSAHQPYETYPDLLKKACQEVGSVAQVAGGVPAMCDGVTQGQPGMELSLLSREVIAMATAVGLSHNMFDGALLLGICDKIVPGLLIGALSFGHLPMLFVPAGPMKSGIPNKEKARIRQQFAQGKVDRAQLLEAEAQSYHSAGTCTFYGTANSNQLMLEVMGLQLPGSSFVNPDDPLREALNKMAAKQVCRLTELGTQYSPIGEVVNEKSIVNGIVALLATGGSTNLTMHIVAAARAAGIIVNWDDFSELSDAVPLLARVYPNGHADINHFHAAGGMAFLIKELLDAGLLHEDVNTVAGYGLRRYTQEPKLLDGELRWVDGPTVSLDTEVLTSVATPFQNNGGLKLLKGNLGRAVIKVSAVQPQHRVVEAPAVVIDDQNKLDALFKSGALDRDCVVVVKGQGPKANGMPELHKLTPLLGSLQDKGFKVALMTDGRMSGASGKVPAAIHLTPEAIDGGLIAKVQDGDLIRVDALTGELSLLVSDTELATRTATEIDLRHSRYGMGRELFGVLRSNLSSPETGARSTSAIDELY
AMYEKPPVEKLIEELRQLKEKAYKGGGDERIQFQHSKGKLTARERLALLFDDGKFNEIMTFATTRATEFGLDKQRFYGDGVVTGWGKVDGRTVFAYAQDFTVLGGSLGETHANKIVRAYELALKVGAPVVGINDSGGARIQEGALSLEGYGAVFKMNVMASGVIPQITIMAGPAAGGAVYSPALTDFIIMIKGDAYYMFVTGPEITKVVLGEEVSFQDLGGAVVHATKSGVVHFMVDSEQEAINLTKRLLSYLPSNNMEEPPYIDTGDPADRDATGVEQIVPNDAAKPYNMREIIYKIVDNGEFLEVHKHWAQNIIVGFARIAGNVVGIVANNPEEFGGSIDIDAADKAARFIRFCDAFNIPLISLVDTPGYVPGTDQEYKGIIRHGAKMLYAFAEATVPKITVIVRKSYGGAHIAMSIKSLGADLVYAWPTAEIAVTGPEGAVRILYRKEIQQASNPDDVLKQRIAEYRKLFANPYWAAEKGLVDDVIEPKDTRRVIVAGLEMLKTKREYRYPKKHGNIPL
VADSASTVTNEFSADHPFIYVIRHVDGKILFVGRYSSPTTN
